In patent US20190083587A1 (Novo Nordisk, published 2019):

T1: human fibrinogen (human, UniProt P02671 20-629; P02675 31-491; P02679 27-437, limits assumed)
T1 construct: the chain composition (two each of alpha, beta, gamma) is from general knowledge; also called HCI-0150R Haematologic technologies
T1 sequence (looked up) 1: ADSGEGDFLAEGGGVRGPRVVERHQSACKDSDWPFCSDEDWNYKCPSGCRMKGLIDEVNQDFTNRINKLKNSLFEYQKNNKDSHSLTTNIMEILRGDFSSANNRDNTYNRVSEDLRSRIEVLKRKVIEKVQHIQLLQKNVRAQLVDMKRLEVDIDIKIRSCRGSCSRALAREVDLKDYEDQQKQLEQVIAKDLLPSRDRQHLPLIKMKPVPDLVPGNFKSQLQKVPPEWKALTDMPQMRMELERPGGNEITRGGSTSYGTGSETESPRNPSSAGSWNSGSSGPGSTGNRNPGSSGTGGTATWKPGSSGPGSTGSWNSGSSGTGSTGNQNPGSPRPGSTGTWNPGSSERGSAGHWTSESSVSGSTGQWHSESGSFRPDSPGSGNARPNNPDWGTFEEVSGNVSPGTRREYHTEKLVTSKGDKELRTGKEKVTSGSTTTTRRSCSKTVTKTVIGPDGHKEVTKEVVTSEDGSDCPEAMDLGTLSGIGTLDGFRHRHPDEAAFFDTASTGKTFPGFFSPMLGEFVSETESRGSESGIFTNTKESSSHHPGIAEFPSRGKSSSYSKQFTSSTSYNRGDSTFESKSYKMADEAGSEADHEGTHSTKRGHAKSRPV
T1 sequence (looked up) 2: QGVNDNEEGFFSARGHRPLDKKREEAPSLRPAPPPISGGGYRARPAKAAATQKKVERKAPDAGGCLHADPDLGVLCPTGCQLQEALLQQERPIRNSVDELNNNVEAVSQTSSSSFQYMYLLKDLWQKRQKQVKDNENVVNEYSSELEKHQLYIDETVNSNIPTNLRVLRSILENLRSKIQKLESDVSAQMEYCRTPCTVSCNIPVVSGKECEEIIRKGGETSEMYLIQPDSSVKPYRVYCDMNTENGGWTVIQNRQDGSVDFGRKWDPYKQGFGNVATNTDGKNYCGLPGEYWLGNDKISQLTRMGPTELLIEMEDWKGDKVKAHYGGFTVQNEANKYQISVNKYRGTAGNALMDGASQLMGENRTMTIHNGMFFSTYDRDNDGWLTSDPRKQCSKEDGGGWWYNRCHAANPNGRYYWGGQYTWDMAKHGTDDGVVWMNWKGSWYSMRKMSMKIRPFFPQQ
T1 sequence (looked up) 3: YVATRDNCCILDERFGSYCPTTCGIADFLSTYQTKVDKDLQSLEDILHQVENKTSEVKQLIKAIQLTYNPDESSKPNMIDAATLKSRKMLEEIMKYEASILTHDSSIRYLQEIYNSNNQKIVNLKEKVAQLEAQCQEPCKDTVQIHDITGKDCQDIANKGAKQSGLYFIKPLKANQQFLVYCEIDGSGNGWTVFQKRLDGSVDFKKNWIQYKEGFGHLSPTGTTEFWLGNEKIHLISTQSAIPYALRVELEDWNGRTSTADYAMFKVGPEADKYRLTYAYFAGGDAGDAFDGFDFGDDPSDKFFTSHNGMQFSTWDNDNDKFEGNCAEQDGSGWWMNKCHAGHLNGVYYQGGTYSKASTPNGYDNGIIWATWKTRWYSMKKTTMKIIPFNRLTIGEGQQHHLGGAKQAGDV

B1: hTLT-1 ECD-His (receptor)
chain: QGIVGSLPEVLQAPVGSSILVQCHYRLQDVKAQKVWCRFLPEGCQPLVSSAVDRRAPAGRRTFLTDLGGGLLQVEMVTLQEEDAGEYGCMVDGARGPQILHRVSLNILPPEEEEETHKIGSLAENAFSDPAGSANPLEPSQDEKSIPHHHHHH
notes: Extracellular domain of human TLT-1 with C-terminal His-6 tag; the range 16-168 is computed from these; also called TLT-1-His; His tagged human TLT1

Legend:
hTLT-1 ECD-His = biological target: B1; assay: SPR Biacore, TLT-1-His captured via anti-His mAb, Fab as analyte
Protocol: Method: The mAbs of interest were either immobilized directly to a CM5 chip or by capture via a human Fc capture mAb immobilized to a CM5 chip, while TLT-1-His was immobilized by capture via an anti-His mAb CM5 chip for analysis of Fabs.
TLT-1-His capture via anti-His mAb (R&D #MAB050): The anti-His mAb was immobilised to approx 9.000 RU. The TLT-1-His was added to a level of approx 30-40 RU (10 μg/ml diluted in 10 mM Hepes, 150 mM NaCl, 3 mM EDTA, 0.005% Tween-20) using the standard procedure recommended by the supplier. 8-fold dilutions of Fabs from 3 to 0.047 μg/ml were tested for binding to the TLT-1-His. Running and dilution buffer: 10 mM Hepes, 150 mM NaCl, 3 mM EDTA, 0.005% Tween-20. Regeneration was obtained by 3 M MgCl₂.

FVIIa-Fab1029 = biological target: T2, FVIIa-Fab1029 (human, UniProt P08709 61-466, linker attached as sialic acid derivative to an N-linked glycan (ST3Gal-III); gamma-carboxylated Glu in the Gla domain; unpaired hinge Cys (YGPPC) coupled by maleimide to the 10 kDa PEG linker); assay: SPR Biacore T100, TLT-1 immobilised on CM5, analyte 20-0.3 nM
T2 construct: FVIIa is the two-chain form cleaved between Arg152 and Ile153; also called conjugate of anti TLT-1-FAB fragment (Fab0084) to FVIIa, 10 kDa PEG linker
T2 sequence (P08709 61-466 limits assumed): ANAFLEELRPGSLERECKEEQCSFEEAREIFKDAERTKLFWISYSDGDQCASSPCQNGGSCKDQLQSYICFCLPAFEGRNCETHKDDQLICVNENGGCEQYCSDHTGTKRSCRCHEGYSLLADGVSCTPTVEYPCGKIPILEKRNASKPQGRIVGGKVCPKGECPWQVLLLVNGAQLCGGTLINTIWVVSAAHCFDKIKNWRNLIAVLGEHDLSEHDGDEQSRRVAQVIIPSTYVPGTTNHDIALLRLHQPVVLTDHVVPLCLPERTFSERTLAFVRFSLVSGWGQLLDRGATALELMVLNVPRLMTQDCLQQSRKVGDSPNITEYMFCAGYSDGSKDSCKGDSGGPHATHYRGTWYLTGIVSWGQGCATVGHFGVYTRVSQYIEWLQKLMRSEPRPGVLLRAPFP
Protocol: TLT-1 was immobilized directly to a CM5 chip to a level of approx 2000 RU (50 ug/ml diluted in Na-acetate, pH 4.0) using the standard procedure recommended by the supplier and reagents provided in Table 16. Two-fold dilutions of FVIIa-Fab1029 and FIX-Fab0135 from 20 nM to 0.3 nM were tested for binding to TLT-1. Running and dilution buffer: 10 mM HEPES, 150 mM, 0.005% p20, pH 7.4. Regeneration was obtained by 10 mM Glycine, pH 1.7. Determination of kinetic and binding constants (kₒₙ, koff, KD) was obtained assuming a 1:1 interaction of TLT-1 and FVIIa-Fab1029 or FIX-Fab0135 using the Biacore T100 evaluation software.

FVIIa-Fab1001 = biological target: T3, FVIIa-Fab1001 (human, UniProt P08709 61-466, linker attached as sialic acid derivative to an N-linked glycan (ST3Gal-III); gamma-carboxylated Glu in the Gla domain; unpaired hinge Cys (YGPPC) coupled by maleimide to the 3 kDa PEG linker); assay: SPR Biacore T200, His-tagged TLT-1 captured via anti 6xHis mAb, analyte 29.29-0.45 nM, 25 C
T3 construct: FVIIa is the two-chain form; also called conjugate of anti TLT-1-FAB fragment (Fab0084) to FVIIa via a 3 kDa PEG linker
T3 sequence (P08709 61-466 limits assumed): as above
Protocol: Method: An anti 6×his antibody was immobilised to a level of approx 9000 RU on a CM5 chip (0.5 mg/ml diluted in Na-acetate, pH 5.0) using the standard procedure recommended by the supplier. Human his-tagged TLT-1 in a concentration of 100 ng/ml was used as ligand. FVIIa-Fab1001 in two-fold dilutions from 29.29 nM to 0.45 nM was used as analytes. The running and dilution buffer was made from: 10 mM HEPES, 150 mM NaCl, 3 mM EDTA, 0.005% p20, pH 7.4. Regeneration was obtained by 3 M MgCl₂. The experiment was run at 25 degree Celsius. Determination of kinetic and binding constants (kₒₙ, koff, KD) was obtained assuming a 1:1 interaction of TLT1 and FVIIa-Fab1001 using the Biacore T200 evaluation software (Table 19).

human fibrinogen = biological target: T1, human fibrinogen; assay: SPR Biacore T100, TLT-1 immobilised on CM5, fibrinogen 200-0.2 nM as analyte
Protocol: Human TLT-1 was immobilised to a level of approx 1000 RU on a CM5 chip (50 μg/ml diluted in Na-acetate, pH 4.0) using the standard procedure recommended by the supplier. Four-fold dilutions of human fibrinogen from 200 nM to 0.2 nM were tested for binding to the immobilized TLT-1. Running and dilution buffer: 10 mM HEPES, 150 mM, 0.005% p20, pH 7.4. Regeneration was obtained by 10 mM Glycine, pH 1.7.
Determination of kinetic and binding constants (kₒₙ, koff, KD) was obtained assuming a 1:1 interaction of TLT-1 and fibrinogen using the Biacore T100 evaluation software (Table 11).

Kd (hTLT-1 ECD-His) [nM]	koff (hTLT-1 ECD-His) [s⁻¹]	kon (hTLT-1 ECD-His) [M⁻¹ s⁻¹]	Kd (FVIIa-Fab1029) [nM]	koff (FVIIa-Fab1029) [s⁻¹]	kon (FVIIa-Fab1029) [M⁻¹ s⁻¹]	Kd (FVIIa-Fab1001) [nM]	koff (FVIIa-Fab1001) [s⁻¹]	kon (FVIIa-Fab1001) [M⁻¹ s⁻¹]	Kd (human fibrinogen) [nM]	koff (human fibrinogen) [s⁻¹]	kon (human fibrinogen) [M⁻¹ s⁻¹]	Binder
5.2	0.00279	536000	–	–	–	–	–	–	–	–	–	Fab0003 (Fab, VH-CH1 (human IgG4) with partial hinge YGPPC; light chain with HPC4 tag; Entries may include signal peptides; also called antiTLT-1 0003Fab-YGPPC; (0052LC-HPC4)) heavy: QVQLQQSGAEPMKPGASVKISCKATGYTFSSHWIEWIKQRPGHGLEWIGEILPGSGNTNYNEKFKGKATFTADTSSNTAYMQLSSLTSEDSAVYYCARGYYGLNYDWYFDVWGAGTTVTVSSASTKGPSVFPLAPCSRSTSESTAALGCLVKDYFPEPVTVSWNSGALTSGVHTFPAVLQSSGLYSLSSVVTVPSSSLGTKTYTCNVDHKPSNTKVDKRVESKYGPPC light: DIQMTQTTSSLSASLGDRVTISCRASQDISNYLNWYQQKPDGTVKLLIFYTSRLHSGVPSRFSGSGSGTDYSLTISNLEPEDIATYYCQQDTKLPYTFGGGTKLEMKRTVAAPSVFIFPPSDEQLKSGTASVVCLLNNFYPREAKVQWKVDNALQSGNSQESVTEQDSKDSTYSLSSTLTLSKADYEKHKVYACEVTHQGLSSPVTKSFNRGECEDQVDPRLIDGK
1.7	0.00195	1.15e+06	–	–	–	–	–	–	–	–	–	Fab0004 (Fab, VH-CH1 (human IgG4) with partial hinge YGPPC; light chain with HPC4 tag; Entries may include signal peptides; also called antiTLT-1 0004Fab-YGPPC; (0023LC-HPC4)) heavy: EVRLVESGGGLVQPGGSLKLSCATSGFTFSDYFMYWIRQTPEKRLEWVAYISNGGDSSSYPDTVKGRFTISRDNAKNTLYLQMSRLKSEDTAMYYCATNKNWDDYYDMDYWGQGTSVTVSSASTKGPSVFPLAPCSRSTSESTAALGCLVKDYFPEPVTVSWNSGALTSGVHTFPAVLQSSGLYSLSSVVTVPSSSLGTKTYTCNVDHKPSNTKVDKRVESKYGPPC light: DIVVSQSPSSLAVSAGEKVTMSCKSSQSLLNSRTRKNYLAWYQQKPGQSPKLLIYWASTRESGVPDRFTGSGSGTDFTLTISSVQAEDLAVYYCKQSYNLLTFGAGTKLELKRTVAAPSVFIFPPSDEQLKSGTASVVCLLNNFYPREAKVQWKVDNALQSGNSQESVTEQDSKDSTYSLSSTLTLSKADYEKHKVYACEVTHQGLSSPVTKSFNRGECEDQVDPRLIDGK
–	–	–	18.3	0.00726	397000	3.99	0.00319	801000	94	0.000392	4170	B1
0.99	0.00524	5.31e+06	–	–	–	–	–	–	–	–	–	Fab0084 (Fab, VH-CH1 (human IgG4) with partial hinge YGPPC (one free Cys); light chain with HPC4 tag; the ends of the ranges are computed; also called antiTLT-1 0084Fab-YGPPC; (0012VH.T60N-CH1-YGPPC)) heavy: EVKLLESGGGLVQPGGSLKLSCAASGFDFSRYWMTWVRQAPGKGLEWIGEINPDSSTINYNPSLKDKFIISRDNAKNTLYLQMSEVRSEDTALYYCASGVFTSWGQGTLVTVSAASTKGPSVFPLAPCSRSTSESTAALGCLVKDYFPEPVTVSWNSGALTSGVHTFPAVLQSSGLYSLSSVVTVPSSSLGTKTYTCNVDHKPSNTKVDKRVESKYGPPC light: DVVMTQTPLSLPVSLGDQASISCRSSQSLVHRNGNTYFHWALQKPGQSPKLLIYKVSNRFSGVPDRFSGSGSGTDFTLKISRVEAEDLGVYFCSQSTHVPYTFGGGTKLEIKRTVAAPSVFIFPPSDEQLKSGTASVVCLLNNFYPREAKVQWKVDNALQSGNSQESVTEQDSKDSTYSLSSTLTLSKADYEKHKVYACEVTHQGLSSPVTKSFNRGECEDQVDPRLIDGK
2.38	0.00798	3.35e+06	–	–	–	–	–	–	–	–	–	Fab0074 (Fab, VH-CH1 (human IgG4) with partial hinge YGPPC (one free Cys); light chain with HPC4 tag; Entries may include signal peptides; also called antiTLT-1 0074Fab-YGPPC; (0051LC-HPC4)) heavy: QVQLEQSGAELVRPGVSVKISCKGSGYTFTDYSMHWVKQSHAKSLEWIGVISTYYGDVRYNQKFKGKATMTVDKSSSTAYMALARLTSEDSAIYYCARAPMITTGAWFAYWGQGTLVTVSAASTKGPSVFPLAPCSRSTSESTAALGCLVKDYFPEPVTVSWNSGALTSGVHTFPAVLQSSGLYSLSSVVTVPSSSLGTKTYTCNVDHKPSNTKVDKRVESKYGPPC light: SIVMTQTPKFLLVSAGDRVTITCKASQSVSNDVAWYQQKPGQSPKLLINYASSRYTGIPDRFTGSGYGTDFTFTISTVQAEDLAVYFCQQDYSSPYTFGGGTKLEIERTVAAPSVFIFPPSDEQLKSGTASVVCLLNNFYPREAKVQWKVDNALQSGNSQESVTEQDSKDSTYSLSSTLTLSKADYEKHKVYACEVTHQGLSSPVTKSFNRGECEDQVDPRLIDGK
